Test results from patent CN113583127A (MABWELL SHANGHAI BIOTECHNOLOGY CO LTD, dated 2021).
Positions count from the first letter of the chain named. One block for each binder: values may come before it.

Assays:
[1] = molecular target: mFc-NKG2A-CD94重组蛋白 (human) (UniProt P26715); test: BLI (Octet QKe), antibody captured on AHC probe, mFc-NKG2A-CD94 as analyte, 1:1 fit
[2] = molecular target: T1, 人NKG2A/CD94 (Flp-in CHO稳定表达细胞株表面) (human, UniProt P26715 1-233; Q13241 1-179); test: flow cytometry, Fab titrated on CHO cells expressing human NKG2A/CD94; column head KD[nM], title and text call it EC50
T1 construct: whole, on cells; also called 细胞表面人NKG2A/CD94; huNKGA/huCD94
T1 sequence (P26715 whole entry, chain 1 of 2): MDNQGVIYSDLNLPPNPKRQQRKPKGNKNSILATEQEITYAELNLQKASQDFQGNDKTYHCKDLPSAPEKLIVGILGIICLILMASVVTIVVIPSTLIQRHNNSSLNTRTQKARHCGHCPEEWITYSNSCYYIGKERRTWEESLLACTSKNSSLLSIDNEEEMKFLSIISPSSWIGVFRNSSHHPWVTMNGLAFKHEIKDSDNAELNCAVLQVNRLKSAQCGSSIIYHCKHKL
T1 sequence (Q13241 whole entry, chain 2 of 2): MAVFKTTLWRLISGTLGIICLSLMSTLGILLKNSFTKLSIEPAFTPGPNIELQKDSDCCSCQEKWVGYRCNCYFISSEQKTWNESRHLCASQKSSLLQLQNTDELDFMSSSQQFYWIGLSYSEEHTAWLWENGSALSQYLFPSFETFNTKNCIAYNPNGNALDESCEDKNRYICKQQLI

PD-L1-ECD-mFc = PD-L1-ECD-mFc (UniProt Q9NZQ7); test: competition ELISA: PD-1-hFc coated, 3 nM PD-L1-ECD-mFc with titrated antibody, detection with HRP anti-mouse Fc
Sequence of UniProt Q9NZQ7 (Q9NZQ7 19-239): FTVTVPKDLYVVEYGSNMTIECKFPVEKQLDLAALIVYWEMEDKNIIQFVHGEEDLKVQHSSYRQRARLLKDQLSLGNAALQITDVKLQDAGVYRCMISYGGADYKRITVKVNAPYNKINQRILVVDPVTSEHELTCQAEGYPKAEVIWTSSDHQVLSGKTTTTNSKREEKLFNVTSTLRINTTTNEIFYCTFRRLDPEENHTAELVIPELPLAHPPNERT

Kd [1]: 0.408 nM
koff [1]: 0.000196 s⁻¹
kon [1]: 481000 M⁻¹ s⁻¹
B1: hum270重组抗体 (antibody, V domains shown)
VH: EVQLVQSGAEVKKPGASVKVSCKASGYTFTSYWMNWVRQAPGQGLEWMGRIDPYDSETHYAQKLQGRVTMTTDTSTSTAYMELRSLRSDDTAVYYCARGGYDFDVGTLYWFFDVWGQGTTVTVSS
VL: DIQMTQSPSSLSASVGDRVTITCRASENIYSYLAWYQQKPGKAPKLLIYNAKTLAEGVPSRFSGSGSGTDFTLTISSLQPEDFATYYCQHHYGTPRTFGGGTKVEIK

Kd [2]: 1.43 nM
B2: AM10 Fab (Fab, V domains shown)
VH: B1 VH with G26S, T28D, T30S, S31W, M34I
VL: B1 VL

Kd [2]: 189 nM
B3: AM00 Fab (Fab, V domains shown)
VH: B1 VH
VL: B1 VL
notes: also called 亲本抗体AM00; 模板抗体Fab

IC50 (PD-L1-ECD-mFc): 2.86 nM
B4: 抗NKG2A和抗PD-L1双特异性抗体hum270-F2 (bispecific antibody, part only; not given: Anti-PD-L1 nanobody F2, linker, constant regions, IgG4, not shown: a dimerising Fc or GST)
heavy, part: B1 VH
light, part: B1 VL
